In US20170166631A1 (published 2017):
Read-outs that look alike come from different tables or passages of the source.

T1: HD21 (huntingtin exon 1 protein with 21 polyQ repeats after cleavage of the GST tag; aggregation reaction) (human, UniProt P42858 1-88)
T1 chain: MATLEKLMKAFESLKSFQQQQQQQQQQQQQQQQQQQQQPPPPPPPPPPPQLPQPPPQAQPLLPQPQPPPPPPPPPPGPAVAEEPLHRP

T2: HD49 (huntingtin exon 1 protein with 49 polyQ repeats after cleavage of the GST tag; aggregation reaction) (human, UniProt P42858 1-88)
T2 chain: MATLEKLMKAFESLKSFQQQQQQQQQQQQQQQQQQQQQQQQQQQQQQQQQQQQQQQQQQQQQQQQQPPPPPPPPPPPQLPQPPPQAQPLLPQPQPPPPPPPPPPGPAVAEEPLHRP

T3: BSA-coupled synthetic peptide of the P-rich domain sequence of huntingtin exon 1 (coupled to BSA)
T3 peptide: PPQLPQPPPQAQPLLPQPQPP

B1: NI-302.7D8 (antibody, V domains shown)
VH: QVQLVQSGSELKKPGASVKVSCKASGYNFNNYAINWLRQAPGQGLEWMGWINTITGHPTYAQGFKGRFVFSLDTSVSTAYLQISSLKPEDTAVYYCARTYSNYGEFDYWGQGTLVTVSS
VL: QSALTQPASVSGSRGQSITISCTGTSSDVGSYNLVSWYQQYPGKAPKLIIHEGSERPSGVSNRFSGSKSGNTASLTISGLQAEDEADYYCCSYAGTTTFVLFGGGTKLTVL
B2: NI-302.6N9 (antibody, V domains shown)
VH: EVQLVESGGDLVQPGGSLRLSCVVSGFTFSSYAMTWVRQAPGKGLAWVSTISATGGSTFYTDSVRGRFTISRDNSKNTLYLQMNSLRTDDTAIYYCVKDLFGVDTSYYGMDVWGQGTTVTVSS
VL: EIVLTQSPGTLSLSPGERATLSCRPSQSVSGRYVAWYQQKPGQAPRLLFYAASNRAIGIPDRFSGSGSGTDFTLTISRLEPEDFAVYYCQHYGASSYTFGPGTKVDIK
B3: NI-302.31F11 (antibody, V domains shown)
VH: EVQLVESGGGLIQPGGSLRLSCAASGFTVSSTYMSWVRQAPGKGLECVSVIFSGADTYYADSVKGRFTVSRDNSKNTLFLQMNSLRVEDTATYYCVRHYYGSDLPSDFWGQGTLVTVSS
VL: DVVMTQSPLSLPVAPGEPASISCRSSQSLLYSNGYNYLDWYLQKPGKPPQLLVYLGSDRASGVPDRFSGSGSGKDFTLNISRVEAEDVGVYYCMQGLQSPWTFGQGTKLEIK
B4: NI-302.55D8 (antibody, V domains shown)
VH: QVQLVQSGSEVKKPGASVKVSCKASGYTFTDYYIHWVRQAPGQGLEWMGRINPNNGGTNYAQNFQGWVTMTRDTSISTAYMELSRLRSDDTAVYYCARVGGELLREGGYHYYMDVWGKGTTVTVSS
VL: QSVLTQPPSVSGAPGQRVTISCTGNSSNIGAGYDVHWYQQLPGTAPKLLIFDNTNRPSGVPDRFSGSKSGTSASLAITGLQAEDEANYHCQSYDNSLSGSWVFGGGTKLTVL
B5: NI-302.8F1 (antibody, V domains shown)
VH: EVQLVESGGGLVKPGGSLTISCAASGFTFSNAWMNWVRQAPGKGLEWVGHIRTQAEGGTSDYAAPVKGRFTISRDDSKNTLYLQMNSLKTEDTAVYYCIPPPYYYYYGLDVWGQGTTVTVSS
VL: QSALTQPASVSGSPGQSITISCTGASSDVGTYDLVSWYQQHPGKAPKLIIYEVNKRPSGVSYRFSASKSANTASLTISGLQAEDEAEYYCCSYAGYSTVFGGGTKLTVL
B6: NI-302.74C11 (antibody, V domains shown)
VH: EVQLVQSGTEVQKPGASVKVSCKASGYSFTGYFLHWVRQAPGQGLEWMGWINPNSGDTNYAEKFRGRIIMTRDTSVSTAHMELSSLRFDDTALYYCTREAPDPGAETDVWGQGTTVTVSS
VL: QSVLTQPPSVSVSPGQTARITCSGDAVPKQYIYWYQQKPGQAPILVIYKDTQRPSGIPERFSGSNSGTTVTLTITGVQADDEGDYYCQSADSSATWVFGGGTKLTVL
B7: NI-302.18A1 (antibody, V domains shown)
VH: QLQLQESGPGLVKPSEALSLTCTVSGGSITTDYYYWGWIRQSPGKGLEWVGTIYFGGATYYNPSLRNRVSISVDTSNTRLSLRLISLSAADTAVYYCARVGYLDRSGLLVGQGTLVTVSS
VL: EIVLTQSPLSVPVTPGEPASISCRSSQSLLHNNGYNYLDWYLKKPGQSPQLLIYLGSTRASGVPDRFSASGSGTDFTLEISRVEAEDVGVYYCMQALQTPPTFGRGTKVEIK
B8: NI-302.8M1 (antibody, V domains shown)
VH: EVQLVQSGAEVKKPGASVKVSCKASGYTFTIYYMHWVRQAPGQGLEWMGGISPSGAHTMYAQNFQGRVTVTRDTSTSTVYMELSSLRSEDTAVYYCARGSTVTNYRPFDYWGQGTLVTVSS
VL: DIQMTQSPSSLSASVGDRVTITCRASQDISNYLAWYQQKPGKVPKLLIFAASTLQSGVPSRFGGSGSGTDFTLTISSLQPEDVATYYCQNYNSGPPPFGPGTKVDIK
B9: NI-302.12H2 (antibody, V domains shown)
VH: EVQLVQSGGGLVQPGGSLRLSCEASGFTFSNYAMGWVRQAPGKGLEWVSVISGTGGSTYYADSVKGRFTISRDNSMNTLYLQMNSPRADDTAVYYCAKDLRKISGPLYYYGMDVWGQGTTVTVSS
VL: EIVLTQSPGTLSLSPGERATLSCRASQSVSSGYLAWYQQKPGQAPRLLIYGASTRATGIPDRFSGSGSGTDFTLTISRLEPEDFAVYYCQHYGASSYTFGQGTKLEIK
B10: NI-302.15F9 (antibody, V domains shown)
VH: EVQLVESGGGLVTPGGSLRLSCEASGFLFKNSSMNWVRQTPGKGLEWVSSIDTSATNYKYYADSVKGRFTISRDDATNSLYLQMNSLRADDTATYYCARGYYTPRDFDYWGQGTLVTVSS
VL: DVVMTQSPQTLSVSLGQAASISCRSSQSLLYRDNNTYLNWFHQRPGQSPRRLIYRASDRDSGVPDRFSGGGSGTDFTLKISGVEAEDVGTYYCMQGTHWPRTFGQGTKVEIK
B11: NI-302.4A6 (antibody, V domains shown)
VH: EVQLVESGGGLVQPGGSLRLSCAASGFTFSAYAMSWVRQAPGKGLEWVSTISGSGGSTYYADSVKGRFSISRDNSKNTLYLQMNSLRAEDTAVYFCAKVTTELYGANSYYYYMDVWGKGTTVTVSS
VL: EIVLTQSPGTLSLSPGERATLSCRASQSVVSRYLAWYQQKPGQAPRLLIYGASSRATGIPDRFSGSGSGTDFTLTISRLEPEDFAMYYCQLYGNSQTFGQGTKVEIK
B12: NI-302.52C9 (antibody, V domains shown)
VH: EVQLVQSGGGLVQPGGSLRLSCAGSGFTVSDTYMSWVRQAPGKGLEWVSGIHAGGETYYADSVKGRFTISRDNSKNTLYLQMNRLTPEDTAVFYCARHYYGNDDDTDYWGQGTLVTVSS
VL: DVVMTQSPLSLPVTPGEPASISCRSSQSLLHSNGYNYLDWYVQKPGQSPQLLIYLGSTRASGVPDRFSGSGSGTDFTLKISRVEAEDVGVYYCLQAQQIPWTFGQGTKVEIK

Legend:
Test in all cases: ELISA
[1] = target: T1, HD21 (huntingtin exon 1 protein with 21 …)
[2] = target: T4, GST-HttExon1Q21 (recombinant huntingtin exon 1 protein with 21 polyQ repeats fused to an N-terminal GST tag) (;human, UniProt P08515 1-218 = GST; P42858 1-88)
Target sequence in this assay (P08515 1-218, tags or fused parts left off): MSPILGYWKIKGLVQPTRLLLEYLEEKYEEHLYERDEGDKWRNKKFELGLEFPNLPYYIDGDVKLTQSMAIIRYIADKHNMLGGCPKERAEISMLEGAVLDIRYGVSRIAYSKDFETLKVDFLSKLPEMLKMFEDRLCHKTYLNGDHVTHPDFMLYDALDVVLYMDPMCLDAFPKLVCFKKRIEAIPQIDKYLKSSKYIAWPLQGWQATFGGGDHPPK

[3] = target: T1, HD21 (huntingtin exon 1 protein with 21 …)
[4] = target: T4, GST-HttExon1Q21 (recombinant huntingtin …); remark: listed apart in the source
[5] = target: T2, HD49 (huntingtin exon 1 protein with 49 …)
[6] = target: T1, HD21 (huntingtin exon 1 protein with 21 …)
[7] = target: T4, GST-HttExon1Q21 (recombinant huntingtin …); remark: listed apart in the source
[8] = target: T2, HD49 (huntingtin exon 1 protein with 49 …)
[9] = target: T3, BSA-coupled synthetic peptide of the …
[10] = target: T1, HD21 (huntingtin exon 1 protein with 21 …)
[11] = target: T4, GST-HttExon1Q21 (recombinant huntingtin …); remark: listed apart in the source
[12] = target: T2, HD49 (huntingtin exon 1 protein with 49 …)
[13] = target: T1, HD21 (huntingtin exon 1 protein with 21 …)
[14] = target: T4, GST-HttExon1Q21 (recombinant huntingtin …); remark: listed apart in the source
Target sequence in this assay (P08515 1-218, tags or fused parts left off): as above

[15] = target: T2, HD49 (huntingtin exon 1 protein with 49 …)
[16] = target: T4, GST-HttExon1Q21 (recombinant huntingtin …); remark: listed apart in the source
[17] = target: T2, HD49 (huntingtin exon 1 protein with 49 …)

| Binder | EC50 [1] | EC50 [2] | EC50 [5] | EC50 [13] | EC50 [14] | EC50 [15] | further results |
| --- | --- | --- | --- | --- | --- | --- | --- |
| B1 | > 100000 pM | 51000 pM | – | – | – | – | EC50 [3]: > 100000 pM; EC50 [4]: 51000 pM |
| B2 | 210 pM | 240 pM | 190 pM | – | – | – | EC50 [6]: 210 pM; EC50 [7]: 240 pM; EC50 [8]: 190 pM |
| B3 | 4300 pM | 900 pM | 600 pM | – | – | – | EC50 [9]: 500 pM; EC50 [6]: 4300 pM; EC50 [7]: 900 pM; EC50 [8]: 600 pM |
| B4 | – | – | – | 1200 pM | 200 pM | 1700 pM | EC50 [10]: 1200 pM; EC50 [11]: ~200 pM; EC50 [12]: 1700 pM |
| B5 | – | – | – | 1600 pM | 800 pM | 1900 pM | – |
| B6 | 500 pM | 500 pM | 500 pM | – | – | – | EC50 [6]: 500 pM; EC50 [7]: 500 pM; EC50 [8]: 500 pM |
| B7 | – | – | – | 20 pM | 40 pM | 30 pM | – |
| B8 | – | 2 pM | 3 pM | – | – | – | EC50 [16]: 2 pM; EC50 [17]: 3 pM |
| B9 | – | 40 pM | 40 pM | – | – | – | EC50 [16]: 40 pM; EC50 [17]: 40 pM |
| B10 | 35000 pM | 11000 pM | 6000 pM | – | – | – | – |
| B11 | – | 3000 pM | 3000 pM | – | – | – | EC50 [16]: 3000 pM; EC50 [17]: 3000 pM |
| B12 | – | – | – | 28000 pM | 10200 pM | 30000 pM | – |
